To fix the notation:
B1: C-terminal RRM domain of Pla1 (Pla1RRM, residues 352-566), purified [S. pombe] / Red1 residues 288-345 (Pla1 interaction region), purified [S. pombe] (parent)
chain 1: ISLPLLKQDDWLSSSKPFGSSTPNVVIEFDSDDDGDDFSNSKIEQSNLEKPPSNSENG
chain 2: DFFHRYKHYLTITAAAKTAEAQLKWAGLVESKLRHLVTRLELVDAIALAHPFNKGFDKVYNCSSEEEAQQVASGVTLEVAYESTDHEKLANDTVNEEKADNTESKADGSENGEKQIFPVYTTTCYIGLELEKKKGHPIKRLDISWPTQEFYELCKKWDKYDDTLMNVFIKNTKNTALPDEVFEPGEERPKATKKRSTADTAHSTEQLKRQKVSTA

The variants in one assay derive from B1. As to the kind of experiment: ITC. The conditions noted are these: with Red1 residues 288-345 (Pla1 interaction region).
Take chain 2 DFFHRYKHYLTITAAAKTAEAQLKWAGLVESKLRHLVTRLELVDAIALAHPFNKGFDKVYNCSSEEEAQQVASGVTLEVAYESTDHEKLANDTVNEEKADNTESKADGSENGEKQIFPVYTTTCYIGLELEKKKGHPIKRLDISWPTQEFYELCKKWDKYDDTLMNVFIKNTKNTALPDEVFEPGEERPKATKKRSTADTAHSTEQLEEQEVSTA [chain 2 K208E R209E K211E]: the dissociation constant (Kd) came to 2.8 µM.
Turning to chain 2 DFFHRYKHYLTITAAAETAEAQLKWAGLVESKLRHLVTRLELVDAIALAHPFNKGFDKVYNCSSEEEAQQVASGVTLEVAYESTDHEKLANDTVNEEKADNTESKADGSENGEKQIFPVYTTTCYIGLELEKKKGHPIKRLDISWPTQEFYELCKKWDKYDDTLMNVFIKNTKNTALPDEVFEPGEERPKATKKRSTADTAHSTEQLKRQKVSTA [chain 2 K17E], the Kd came to 17.8 µM.

Still in this assay, the particulars now being: with C-terminal RRM domain of Pla1 (Pla1RRM, residues 352-566).
With chain 1 ISLPLLKQDDWLSSSKPFGSSTPNVRIEFDSDDDGDDFSNSKIEQSNLEKPPSNSENG, the Kd came out at 17.9 µM.
